# Experimental data published in patent publication US20200289646A1.
# Where a chain is given by its changes, count along the chain named.
# B1: MSLN targeting trispecific protein 5D4 (protein, part only; not given: Albumin and CD3 binders, linkers, part only)
# chain, part: QVQLVESGGGLVQAGGSLRLSCVASGRTDRITTMGWYRQAPGKQRELVATISNRGTSNYANSVKGRFTISRDNAKNTVYLQMNSLKPEDTAVYYCNARKWGRNYWGQGTQVTVSSHHHHHH
# B2: MSLN targeting trispecific protein 2A4 (protein, part only; not given: Albumin and CD3 binders, linkers, part only)
# chain, part: QVQLVESGGGLVQARGSLRLSCTASGRTIGINDMAWYRQAPGNQRELVATITKGGTTDYADSVDGRFTISRDNAKNTVYLQMNSLKPEDTAVYYCNTKRREWAKDFEYWGQGTQVTVSSHHHHHH
# B3: MSLN targeting trispecific protein 2A2 (protein, part only; not given: Albumin and CD3 binders, linkers, part only)
# chain, part: QVQLVESGGGLVQAGGSLTLSCAASGSTFSIRAMRWYRQAPGTERDLVAVIYGSSTYYADAVKGRFTISRDNAKNTLYLQMNNLKPEDTAVYYCNADTIGTARDYWGQGTQVTVSSHHHHHH
# B4: MSLN targeting trispecific protein 5F2 (protein, part only; not given: Albumin and CD3 binders, linkers, part only)
# chain, part: B3 chain, part with T19R, S30R, A33V, Y52S, A61S, T98D, I99S, T101I
# B5: MSLN targeting trispecific protein 3B4 (protein, part only; not given: Albumin and CD3 binders, linkers, part only)
# chain, part: QVQLVESGGGLVQAGGSLRLSCVASGSTSNINNMRWYRQAPGKERELVAVITRGGYAIYLDAVKGRFTISRDNANNAIYLEMNSLKPEDTAVYVCNADRVEGTSGGPQLRDYFGQGTQVTVSSHHHHHH
# B6: MSLN targeting trispecific protein 6H2 (protein, part only; not given: Albumin and CD3 binders, linkers, part only)
# chain, part: QVQLVESGGGLVQAGGSLRLSCAASGRTLSRYAMGWFRQAPGKERQFVAAISRSGGTTRYSDSVKGRFTISRDNAANTFYLQMNNLRPDDTAVYYCNVRRRGWGRTLEYWGQGTQVTVSSHHHHHH
# B7: MSLN targeting trispecific protein 4A2 (protein, part only; not given: Albumin and CD3 binders, linkers, part only)
# chain, part: QVQLVESGGGLVQAGGSLRLSCAASGSTFGINAMGWYRQAPGKQRELVAVISRGGSTNYADSVKGRFTISRDNAENTVSLQMNTLKPEDTAVYFCNARTYTRHDYWGQGTQVTVSSHHHHHH
# B8: MSLN targeting trispecific protein 11F3 (protein, part only; not given: Albumin and CD3 binders, linkers, part only)
# chain, part: QVQLVESGGGLVQAGGSLRLSCVASGRTSTIDTMYWHRQAPGNERELVAYVTSRGTSNVADSVKGRFTISRDNAKNTAYLQMNSLKPEDTAVYYCSVRTTSYPVDFWGQGTQVTVSSHHHHHH
# B9: MSLN targeting trispecific protein 9H2 (protein, part only; not given: Albumin and CD3 binders, linkers, part only)
# chain, part: QVQLVESGGGLVQAGGSLRLSCAASGSTSSINTMYWYRQAPGKERELVAFISSGGSTNVRDSVKGRFSVSRDSAKNIVYLQMNSLTPEDTAVYYCNTYIPLRGTLHDYWGQGTQVTVSSHHHHHH
# B10: MSLN targeting trispecific protein 5C2 (protein, part only; not given: Albumin and CD3 binders, linkers, part only)
# chain, part: B9 chain, part with Y37F, K43E, F50T, S52N, S53R, S84R, T86K, L101Y, R102G, Y108F
# B11: MSLN targeting trispecific protein 10B3 (protein, part only; not given: Albumin and CD3 binders, linkers, part only)
# chain, part: B9 chain, part with T86K, L101Y, R102G, Y108F
# B12: MSLN targeting trispecific protein 2C2 (protein, part only; not given: Albumin and CD3 binders, linkers, part only)
# chain, part: QVQLVESGGGLVQAGESRRLSCAVSGDTSKFKAVGWYRQAPGAQRELLAWINNSGVGNTAESVKGRFTISRDNAKNTVYLQMNRLTPEDTDVYYCRFYRRFGINKNYWGQGTQVTVSSHHHHHH
# B13: MSLN targeting trispecific protein 7H2 (protein, part only; not given: Albumin and CD3 binders, linkers, part only)
# chain, part: QVQLVESGGGLVQAGGSLRLSCAFSGTTYTFDLMSWYRQAPGKQRTVVASISSDGRTSYADSVRGRFTISGENGKNTVYLQMNSLKLEDTAVYYCLGQRSGVRAFWGQGTQVTVSSHHHHHH
# B14: MSLN targeting trispecific protein 12D1 (protein, part only; not given: Albumin and CD3 binders, linkers, part only)
# chain, part: QVRLVESGGGLVQAGGSLRLSCAASISAFRLMSVRWYRQDPSKQREWVATIDQLGRTNYADSVKGRFAISKDSTRNTVYLQMNMLRPEDTAVYYCNAGGGPLGSRWLRGRHWGQGTQVTVSSHHHHHH
# B15: MSLN targeting trispecific protein 3G1 (protein, part only; not given: Albumin and CD3 binders, linkers, part only)
# chain, part: QVRLVESGGGLVQAGESLRLSCAASGRPFSINTMGWYRQAPGKQRELVASISSSGDFTYTDSVKGRFTISRDNAKNTVYLQMNSLKPEDTAVYYCNARRTYLPRRFGSWGQGTQVTVSSHHHHHH
# B16: MSLN targeting trispecific protein 12C2 (protein, part only; not given: Albumin and CD3 binders, linkers, part only)
# chain, part: QVQLVESGGGLVQTGGSLRLSCAASGLTFGVYGMEWFRQAPGKQREWVASHTSTGYVYYRDSVKGRFTISRDNAKSTVYLQMNSLKPEDTAIYYCKANRGSYEYWGQGTQVTVSSHHHHHH
# B17: MSLN targeting trispecific protein 5H1 (protein, part only; not given: Albumin and CD3 binders, linkers, part only)
# chain, part: QVQLVESGGGLVQPGGSLRLSCAASGGDWSANFMYWYRQAPGKQRELVARISGRGVVDYVESVKGRFTISRDNAKNTVYLQMNSLKPEDTAVYYCAVASYWGQGTQVTVSSHHHHHH
# B18: MSLN targeting trispecific protein 3F2 (protein, part only; not given: Albumin and CD3 binders, linkers, part only)
# chain, part: QVQIVESGGGLVQAGGSLRLSCVASGLTYSIVAVGWYRQAPGKEREMVADISPVGNTNYADSVKGRFTISKENAKNTVYLQMNSLKPEDTAVYYCHIVRGWLDERPGPGPIVYWGQGTQVTVSSHHHHHH
# B19: MSLN targeting trispecific protein 7C4 (protein, part only; not given: Albumin and CD3 binders, linkers, part only)
# chain, part: QVQLVESGGGLVPSGGSLRLSCAASGATSAITNLGWYRRAPGQVREMVARISVREDKEDYEDSVKGRFTISRDNTQNLVYLQMNNLQPHDTAIYYCGAQRWGRGPGTTWGQGTQVTVSSHHHHHH
# B20: MSLN targeting trispecific protein 6F3 (protein, part only; not given: Albumin and CD3 binders, linkers, part only)
# chain, part: QVQPVESGGGLVQPGGSLRLSCVVSGSDFTEDAMAWYRQASGKERESVAFVSKDGKRILYLDSVRGRFTISRDIYKKTVYLQMDNLKPEDTGVYYCNSAPGAARNVWGQGTQVTVSSHHHHHH
# B21: MSLN targeting trispecific protein 2A1 (protein, part only; not given: Albumin and CD3 binders, linkers, part only)
# chain, part: B20 chain, part with Y75D, V106Y
# B22: MSLN targeting trispecific protein 5D2 (protein, part only; not given: Albumin and CD3 binders, linkers, part only)
# chain, part: QVQLGESGGGLVQAGGSLRLSCAASGSIFSPNAMIWHRQAPGKQREPVASINSSGSTNYGDSVKGRFTVSRDIVKNTMYLQMNSLKPEDTAVYYCSYSDFRRGTQYWGQGTQVTVSSHHHHHH
# B23: MSLN targeting trispecific protein 5G2 (protein, part only; not given: Albumin and CD3 binders, linkers, part only)
# chain, part: QVQLVESGGGLVQAGGSLRLSCAASGSTFGNKPMGWYRQAPGKQRELVAVISSDGGSTRYAALVKGRFTISRDNAKNTVYLQMESLVAEDTAVYYCNALRTYYLNDPVVFSWGQGTQVTVSSHHHHHH
# B24: MSLN targeting trispecific protein 9F3 (protein, part only; not given: Albumin and CD3 binders, linkers, part only)
# chain, part: QVQLVESGGGLVQAGGSLRLSCAASGSIPSIEQMGWYRQAPGKQRELVAALTSGGRANYADSVKGRFTISGDNVRNMVYLQMNSLKPEDTAIYYCSAGRFKGDYAQRSGMDYWGKGTLVTVSSHHHHHH
# B25: MSLN targeting trispecific protein 7F1 (protein, part only; not given: Albumin and CD3 binders, linkers, part only)
# chain, part: QVQLVESGGGLVQAGGSLRLSCAASAIGSINSMSWYRQAPGKQREPVAVITDRGSTSYADSVKGRFTISRDNAKNTVYLQMNSLKPEDTAIYTCHVIADWRGYWGQGTQVTVSSHHHHHH
# B26: MSLN targeting trispecific protein 2F4 (protein, part only; not given: Albumin and CD3 binders, linkers, part only)
# chain, part: B25 chain, part with A23T, A24T, A26T, I27T, G28F, K42N, D52N, S55T, K74R, N82D
# B27: MSLN targeting trispecific protein 2D1 (protein, part only; not given: Albumin and CD3 binders, linkers, part only)
# chain, part: B25 chain, part with A26T, I27T, G28S, P40Q
# B28: MSLN targeting trispecific protein 9B1 (protein, part only; not given: Albumin and CD3 binders, linkers, part only)
# chain, part: QVQLVESGGGLVQPGGSLRLSCAASGRTFSVRGMAWYRQAGNNRALVATMNPDGFPNYADAVKGRFTISWDIAENTVYLQMNSLNSEDTTVYYCNSGPYWGQGTQVTVSSHHHHHH
# Molecular target: human mesothelin (MSLN) (human) (UniProt Q13421)
# Assay: cell-based or functional assay
# Sequence of human mesothelin (MSLN) (human) (Q13421 296-606 limits assumed): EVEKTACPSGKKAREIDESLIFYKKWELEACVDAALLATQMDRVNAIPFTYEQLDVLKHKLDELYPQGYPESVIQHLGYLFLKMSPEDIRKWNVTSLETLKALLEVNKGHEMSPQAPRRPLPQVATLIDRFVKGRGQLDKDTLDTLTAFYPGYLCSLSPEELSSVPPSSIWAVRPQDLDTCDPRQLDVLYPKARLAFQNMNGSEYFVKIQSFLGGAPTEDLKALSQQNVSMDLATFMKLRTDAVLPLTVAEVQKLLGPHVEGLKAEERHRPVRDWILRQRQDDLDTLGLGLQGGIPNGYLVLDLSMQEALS
row,"TDCC Average EC50 [M], OVCAR8 cells, human T cells",Binder
1,1e-09 M,B1
2,1.9e-09 M,B2
3,1.6e-12 M,B3
4,5.3e-12 M,B4
5,1.8e-12 M,B5
6,2e-09 M,B6
7,1.7e-09 M,B7
8,2.2e-12 M,B8
9,1.1e-12 M,B9
10,1.5e-12 M,B10
11,1.4e-12 M,B11
12,9.5e-09 M,B12
13,5.5e-12 M,B13
14,1.1e-09 M,B14
15,4e-09 M,B15
16,8e-13 M,B16
17,5.9e-12 M,B17
18,2.4e-08 M,B18
19,1e-08 M,B19
20,8.2e-10 M,B20
21,1.2e-09 M,B21
22,1.4e-11 M,B22
23,3.6e-09 M,B23
24,> 1e-07 M,B24
25,2.4e-12 M,B25
26,7.3e-13 M,B26
27,5.2e-11 M,B27
28,> 1e-07 M,B28
